{"source": "paper PMC2859543", "target": "GST-cLkh1^ΔLA (LAMMER motif-deleted Lkh1 catalytic domain) (S. pombe)", "test": "pull-down", "data": [{"binder": "His6-tagged Tup12 (natural protein) MATSNVSSRVNELLEAVKKEFEDICQKTKTVEAQKDDFEYKAMISAQINEMALMKQTVMDLEMQQSKVKDRYEEEITSLKAQLEARRKEIASGVVPQSSKTKHGRNSVSFGKYGNAGPFNSDNSSKPLILNNGSSGGTPKNLRSPAIDSDGTVLAPIQTSNVDLGSQYYSSPHVRPAVGATMAGSAMRTFPSNLPLGHPPPPSDSANSSVTPIAAPLVVNGKVSGNPPYPAEIIPTSNVPNREEKDWTVTSNVPNKEPPISVQLLHTLEHTSVICYVRFSADGKFLATGCNRAAMVFNVETGKLITLLQEESSKREGDLYVRSVAFSPDGKYLATGVEDQQIRIWDIAQKRVYRLLTGHEQEIYSLDFSKDGKTLVSGSGDRTVCLWDVEAGEQKLILHTDDGVTTVMFSPDGQFIAAGSLDKVIRIWTSSGTLVEQLHGHEESVYSVAFSPDGKYLVSGSLDNTIKLWELQCVSNVAPSMYKEGGICKQTFTGHKDFILSVTVSPDGKWIISGSKDRTIQFWSPDSPHSQLTLQGHNNSVISVAVSPNGHCFATGSGDLRARIWSYEDL", "values": [{"measurement": "percent of the substrate-binding activity of GST-cLkh1 and GST-cLkh1^K391R", "value": 30, "unit": "%"}]}, {"binder": "His6-tagged Tup11 (natural protein) MASVEDATKVQEMLDALKAEYNALAHHSFASKARGNDYESSMIQSQIQEIEAFRKTVDDMYEKQKSIRETYEKDINKLKRELEELGVEANTASYRNRGERSELAASNNQVTHIDQEHPSQTKSTSQPPSNHLPAFQQIPPIHQSAYPQNNVAEVLMPPIPPSVEASSGQNFNQGIASQNPAISTSNLPSTTPLYIPPVNYGANQVSQQPNPQLPGVSNYYNPSATSKPAVNVQPPRIPTKATPSAEPSMTASANAGSISQAGPDGEYQGREQIAPVSDTEAARKTTSQSWYVTYNPACKRVFNINLVHTLEHPSVVCCVKFSNNGKYLATGCNQAANVFDVQTGKKLFTLHEESPDPSRDLYVRTIAFSPDGKYLVTGTEDRQIKLWDLSTQKVRYVFSGHEQDIYSLDFSHNGRFIVSGSGDRTARLWDVETGQCILKLEIENGVTAIAISPNDQFIAVGSLDQIIRVWSVSGTLVERLEGHKESVYSIAFSPDSSILLSGSLDKTIKVWELQATRSVGLSAIKPEGICKATYTGHTDFVLSVAVSPDSRWGLSGSKDRSMQFWDLQTGQSYLTCQGHKNSVISVCFSPDGRQFASGSGDLRARIWSIDPASP", "values": [{"measurement": "percent of the substrate-binding activity of GST-cLkh1 and GST-cLkh1^K391R", "value": 30, "unit": "%"}]}]}
